{
  "source": "patent US20230329245A1",
  "about": "“COMPOSITIONS AND METHODS OF USE THEREOF” (Curie Co. Inc., priority 2020, published 2023)",
  "molecules": {"B1": {"name": "Pro-Tgase SEQ ID NO:3: variant of Streptomyces mobaraensis Tgase zymogen form (pro-Tgase), SEQ ID NO:3 (protein)", "chain": "MDNGAGEETKSYAETYRLTADDVANINALNESAPAASSAGPSFRAPDPDDRVTPPAEPLDRMPDPYRPSYGRAETVVNNYIRKWQQVYSHRDGRKQQMTEEQREWLSYGCVGVTWVNSGQYPTNRLAFASFDEDRFKNELKNGRPRSGETRAEFEGRVAKESFDEEKGFQRAREVASVMNRALENAHDESAYLDNLKKELANGNDALRNEDARSPFYSALRNTPSFKERNGGNHDPSRMKAVIYSKHFWSGQDRSSSADKRKYGDPDAFRPAPGTGLVDMSRDRNIPRSPTSPGEGFVNFDYGWFGAQTEADADKTVWTHGNHYHAPNGSLGAMHVYESKFRNWSEGYSDFDRGAYVITFIPKSWNTAPDKVKQGWPLEHHHHHH"}},
  "test": "Colorimetric hydroxamate Tgase activity assay",
  "format": "biochemical",
  "conditions": "zymogen purified on Ni-IMAC resin and desalted",
  "method": "The cells were lysed using a high-pressure homogenizer at pressures from 15000-20000 psi. The crude lysates were clarified through centrifugation at 15000×g for up to 60 minutes. The clarified lysate containing pro-Tgase SEQ ID NO:3 was evaluated by sodium dodecyl sulfate polyacrylamide gel electrophoresis (SDS-PAGE) and spectroscopy (A280 nm). The clarified lysate was further purified by affinity column on a Ni-IMAC resin and desalted.",
  "data": [
    {"molecule": "B1", "values": [
      {"measurement": "Tgase activity (colorimetric hydroxamate activity assay)", "value": "little to no activity"}
    ]}
  ]
}
